# T1: Factor VIIIa (FVIIIa), P00451
# T1 chain: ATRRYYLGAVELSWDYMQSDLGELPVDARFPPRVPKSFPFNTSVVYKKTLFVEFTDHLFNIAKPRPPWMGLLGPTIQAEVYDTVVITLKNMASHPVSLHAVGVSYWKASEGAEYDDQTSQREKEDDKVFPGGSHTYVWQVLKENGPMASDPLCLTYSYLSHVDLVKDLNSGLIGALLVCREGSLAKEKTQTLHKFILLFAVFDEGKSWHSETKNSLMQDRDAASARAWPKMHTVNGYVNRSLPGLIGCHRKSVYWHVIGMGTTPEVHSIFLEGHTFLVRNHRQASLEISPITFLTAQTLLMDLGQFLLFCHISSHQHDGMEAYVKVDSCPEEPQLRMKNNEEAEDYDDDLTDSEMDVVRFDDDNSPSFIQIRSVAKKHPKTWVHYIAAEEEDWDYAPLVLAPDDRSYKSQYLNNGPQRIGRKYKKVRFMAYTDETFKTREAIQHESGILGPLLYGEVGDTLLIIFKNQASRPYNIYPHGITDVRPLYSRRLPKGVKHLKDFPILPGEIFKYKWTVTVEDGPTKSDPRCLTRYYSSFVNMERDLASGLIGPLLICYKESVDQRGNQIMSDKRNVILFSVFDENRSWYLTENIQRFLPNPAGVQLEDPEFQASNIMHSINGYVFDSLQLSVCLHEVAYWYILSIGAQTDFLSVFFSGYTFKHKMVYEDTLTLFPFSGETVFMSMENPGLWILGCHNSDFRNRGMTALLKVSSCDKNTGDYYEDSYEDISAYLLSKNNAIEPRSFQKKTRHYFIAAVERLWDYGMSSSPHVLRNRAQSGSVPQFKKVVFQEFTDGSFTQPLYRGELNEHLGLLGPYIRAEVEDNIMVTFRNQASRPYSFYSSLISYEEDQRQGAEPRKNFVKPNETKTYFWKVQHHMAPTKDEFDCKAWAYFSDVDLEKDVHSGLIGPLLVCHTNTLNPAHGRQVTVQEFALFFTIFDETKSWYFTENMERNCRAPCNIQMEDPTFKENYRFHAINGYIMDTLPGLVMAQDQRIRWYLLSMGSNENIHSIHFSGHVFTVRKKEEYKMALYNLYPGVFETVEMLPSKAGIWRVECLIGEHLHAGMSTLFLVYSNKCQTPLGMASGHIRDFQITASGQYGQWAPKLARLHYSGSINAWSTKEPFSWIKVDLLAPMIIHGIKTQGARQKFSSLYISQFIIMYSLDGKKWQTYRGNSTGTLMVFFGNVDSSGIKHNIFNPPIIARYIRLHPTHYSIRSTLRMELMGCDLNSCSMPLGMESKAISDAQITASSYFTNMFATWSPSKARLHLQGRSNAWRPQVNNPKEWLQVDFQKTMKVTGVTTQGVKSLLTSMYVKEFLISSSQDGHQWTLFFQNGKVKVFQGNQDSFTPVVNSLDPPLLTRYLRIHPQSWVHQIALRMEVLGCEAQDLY
# Tests used:
# [1] = molecular target: T1, Factor VIIIa (FVIIIa), P00451
# [2] = molecular target: plasma purified human AT-III (antithrombin III); assay: AT-III/UFH inhibition K0.5, ratio to Catalyst Biosciences WT FIXa
# [3] = molecular target: plasma purified human antithrombin III (AT-III), as complex with unfractionated heparin; assay: ratio of K0.5 to Catalyst Biosciences WT FIXa, AT-III/UFH inhibition
# Factor X (FX), P00742, sequence (P00742 whole entry, looked up): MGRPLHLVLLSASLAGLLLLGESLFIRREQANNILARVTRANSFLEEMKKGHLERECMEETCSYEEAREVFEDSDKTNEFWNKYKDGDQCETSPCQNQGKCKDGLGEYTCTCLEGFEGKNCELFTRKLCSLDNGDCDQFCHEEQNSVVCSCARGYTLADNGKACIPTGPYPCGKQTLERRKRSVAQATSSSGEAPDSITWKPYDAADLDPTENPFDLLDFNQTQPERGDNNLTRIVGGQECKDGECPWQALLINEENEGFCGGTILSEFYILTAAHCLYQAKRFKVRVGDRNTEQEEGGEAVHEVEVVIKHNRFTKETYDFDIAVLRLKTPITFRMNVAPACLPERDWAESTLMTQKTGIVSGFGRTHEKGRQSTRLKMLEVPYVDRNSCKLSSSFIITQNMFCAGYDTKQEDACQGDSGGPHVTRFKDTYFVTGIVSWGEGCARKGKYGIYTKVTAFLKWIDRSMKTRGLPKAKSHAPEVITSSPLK
# Factor X, P00742, sequence (P00742 whole entry, looked up): as above
Protein,K0.5-mut/K0.5-wt [2],K0.5-mut/K0.5-wt [3],"% of WT kcat/KM (Factor X, P00742)","KM (Factor X, P00742)","kcat/KM (Factor X, P00742)","kcat (Factor X (FX), P00742)",other results
"FIX of SEQ ID NO: 394, with the replacements R318Y/R338E/T343R (activated, FIXa) (protein) chain 1: YNSGKLEEFVQGNLERECMEEKCSFEEAREVFENTERTTEFWKQYVDGDQCESNPCLNGGSCKDDINSYECWCPFGFEGKNCELDVTCNIKNGRCEQFCKNSADNKVVCSCTEGYRLAENQKSCEPAVPFPCGRVSVSQTSKLTR chain 2: VVGGEDAKPGQFPWQVVLNGKVDAFCGGSIVNEKWIVTAAHCVETGVKITVVAGEHNIEETEHTEQKRNVIRIIPHHNYNAAINKYNHDIALLELDEPLVLNSYVTPICIADKEYTNIFLKFGSGYVSGWGRVFHKGYSALVLQYLRVPLVDRATCLESTKFRIYNNMFCAGFHEGGRDSCQGDSGGPHVTEVEGTSFLTGIISWGEECAMKGKYGIYTKVSRYVNWIKEKTKLT",,,,,,,"FIX activity, mean, Test 1, FVIIIa 0 ng/mL (no cofactor, baseline) [1]: 1.24; FIX activity, mean, Test 1, FVIIIa 5 ng/mL [1]: 278; FIX activity, mean, Test 2, FVIIIa 0 ng/mL (no cofactor, baseline) [1]: 1.25; FIX activity, mean, Test 2, FVIIIa 10 ng/mL [1]: 479; FIX activity, mean, Test 3, FVIIIa 0 ng/mL (no cofactor, baseline) [1]: 1.28; FIX activity, mean, Test 3, FVIIIa 15 ng/mL [1]: 622; Fold-increase after FVIIIa addition, Test 1 (5 ng/mL) [1]: 225 fold; Fold-increase after FVIIIa addition, Test 2 (10 ng/mL) [1]: 384 fold; Fold-increase after FVIIIa addition, Test 3 (15 ng/mL) [1]: 486 fold; Ratio (CB2679d vs BeneFIX FIX) of FIX activity, Test 1, FVIIIa 0 ng/mL (no cofactor) [1]: 1.3; Ratio (CB2679d vs BeneFIX FIX) of FIX activity, Test 1, FVIIIa 5 ng/mL [1]: 2; Ratio (CB2679d vs BeneFIX FIX) of FIX activity, Test 2, FVIIIa 0 ng/mL (no cofactor) [1]: 1.4; Ratio (CB2679d vs BeneFIX FIX) of FIX activity, Test 2, FVIIIa 10 ng/mL [1]: 2; Ratio (CB2679d vs BeneFIX FIX) of FIX activity, Test 3, FVIIIa 0 ng/mL (no cofactor) [1]: 1.3; Ratio (CB2679d vs BeneFIX FIX) of FIX activity, Test 3, FVIIIa 15 ng/mL [1]: 2; Cofactor-Dependent Indirect kcat/KM (Factor X (FX), P00742): 1.2e+08 M⁻¹ s⁻¹; Fold Change, In Vitro Assays: Pro-coagulant Activity (Factor X (FX), P00742): 2.8 fold; Fold Increase over BeneFIX FIX (Cofactor-Dependent Indirect kcat/KM) (Factor X (FX), P00742): 2.8 fold"
FIXa-K247N/N249S/R318Y/R338E/R403E/E410N (protein) chain 1: YNSGKLEEFVQGNLERECMEEKCSFEEAREVFENTERTTEFWKQYVDGDQCESNPCLNGGSCKDDINSYECWCPFGFEGKNCELDVTCNIKNGRCEQFCKNSADNKVVCSCTEGYRLAENQKSCEPAVPFPCGRVSVSQTSKLTR chain 2: VVGGEDAKPGQFPWQVVLNGKVDAFCGGSIVNEKWIVTAAHCVETGVKITVVAGEHNIEETEHTEQNRSVIRIIPHHNYNAAINKYNHDIALLELDEPLVLNSYVTPICIADKEYTNIFLKFGSGYVSGWGRVFHKGYSALVLQYLRVPLVDRATCLESTKFTIYNNMFCAGFHEGGRDSCQGDSGGPHVTEVEGTSFLTGIISWGEECAMKGKYGIYTKVSEYVNWIKNKTKLT,418,418,341%,0.0392 µM,1.5e+08 M⁻¹ s⁻¹,5.8 s⁻¹,"% of WT kcat/KM (Factor X (FX), P00742): 331%; kcat/KM (Factor X (FX), P00742): 1.5e+08 M⁻¹ s⁻¹"
FIXa-I251S/R318Y/R338E/E410N (protein) chain 1: YNSGKLEEFVQGNLERECMEEKCSFEEAREVFENTERTTEFWKQYVDGDQCESNPCLNGGSCKDDINSYECWCPFGFEGKNCELDVTCNIKNGRCEQFCKNSADNKVVCSCTEGYRLAENQKSCEPAVPFPCGRVSVSQTSKLTR chain 2: VVGGEDAKPGQFPWQVVLNGKVDAFCGGSIVNEKWIVTAAHCVETGVKITVVAGEHNIEETEHTEQKRNVSRIIPHHNYNAAINKYNHDIALLELDEPLVLNSYVTPICIADKEYTNIFLKFGSGYVSGWGRVFHKGYSALVLQYLRVPLVDRATCLESTKFTIYNNMFCAGFHEGGRDSCQGDSGGPHVTEVEGTSFLTGIISWGEECAMKGKYGIYTKVSRYVNWIKNKTKLT,303,303,851%,0.0162 µM,3.8e+08 M⁻¹ s⁻¹,6.2 s⁻¹,"% of WT kcat/KM (Factor X (FX), P00742): 849%; kcat/KM (Factor X (FX), P00742): 3.9e+08 M⁻¹ s⁻¹"
FIXa-D104N/K106S/K228N/K247N/N249S (protein) chain 1: YNSGKLEEFVQGNLERECMEEKCSFEEAREVFENTERTTEFWKQYVDGDQCESNPCLNGGSCKDDINSYECWCPFGFEGKNCELDVTCNIKNGRCEQFCKNSANNSVVCSCTEGYRLAENQKSCEPAVPFPCGRVSVSQTSKLTR chain 2: VVGGEDAKPGQFPWQVVLNGKVDAFCGGSIVNEKWIVTAAHCVETGVNITVVAGEHNIEETEHTEQNRSVIRIIPHHNYNAAINKYNHDIALLELDEPLVLNSYVTPICIADKEYTNIFLKFGSGYVSGWGRVFHKGRSALVLQYLRVPLVDRATCLRSTKFTIYNNMFCAGFHEGGRDSCQGDSGGPHVTEVEGTSFLTGIISWGEECAMKGKYGIYTKVSRYVNWIKEKTKLT,2.1,2.1,,,,1.7 s⁻¹,"kcat of FX activation by FIXa (Xase complex with FVIIIa, PC/PS vesicles, Ca2+) (Factor X (FX), P00742): 1.7 s⁻¹"
FIXa-Y259F/K265T/Y345T (protein) chain 1: YNSGKLEEFVQGNLERECMEEKCSFEEAREVFENTERTTEFWKQYVDGDQCESNPCLNGGSCKDDINSYECWCPFGFEGKNCELDVTCNIKNGRCEQFCKNSADNKVVCSCTEGYRLAENQKSCEPAVPFPCGRVSVSQTSKLTR chain 2: VVGGEDAKPGQFPWQVVLNGKVDAFCGGSIVNEKWIVTAAHCVETGVKITVVAGEHNIEETEHTEQKRNVIRIIPHHNFNAAINTYNHDIALLELDEPLVLNSYVTPICIADKEYTNIFLKFGSGYVSGWGRVFHKGRSALVLQYLRVPLVDRATCLRSTKFTITNNMFCAGFHEGGRDSCQGDSGGPHVTEVEGTSFLTGIISWGEECAMKGKYGIYTKVSRYVNWIKEKTKLT,0.3,0.3,,,,,
FIXa-R318Y/R338E/E410S (protein) chain 1: YNSGKLEEFVQGNLERECMEEKCSFEEAREVFENTERTTEFWKQYVDGDQCESNPCLNGGSCKDDINSYECWCPFGFEGKNCELDVTCNIKNGRCEQFCKNSADNKVVCSCTEGYRLAENQKSCEPAVPFPCGRVSVSQTSKLTR chain 2: VVGGEDAKPGQFPWQVVLNGKVDAFCGGSIVNEKWIVTAAHCVETGVKITVVAGEHNIEETEHTEQKRNVIRIIPHHNYNAAINKYNHDIALLELDEPLVLNSYVTPICIADKEYTNIFLKFGSGYVSGWGRVFHKGYSALVLQYLRVPLVDRATCLESTKFTIYNNMFCAGFHEGGRDSCQGDSGGPHVTEVEGTSFLTGIISWGEECAMKGKYGIYTKVSRYVNWIKSKTKLT,279,279,730%,0.0164 µM,3.3e+08 M⁻¹ s⁻¹,,
FIXa-D104N/K106S/I251S/R318Y/R338E/E410N (protein) chain 1: YNSGKLEEFVQGNLERECMEEKCSFEEAREVFENTERTTEFWKQYVDGDQCESNPCLNGGSCKDDINSYECWCPFGFEGKNCELDVTCNIKNGRCEQFCKNSANNSVVCSCTEGYRLAENQKSCEPAVPFPCGRVSVSQTSKLTR chain 2: VVGGEDAKPGQFPWQVVLNGKVDAFCGGSIVNEKWIVTAAHCVETGVKITVVAGEHNIEETEHTEQKRNVSRIIPHHNYNAAINKYNHDIALLELDEPLVLNSYVTPICIADKEYTNIFLKFGSGYVSGWGRVFHKGYSALVLQYLRVPLVDRATCLESTKFTIYNNMFCAGFHEGGRDSCQGDSGGPHVTEVEGTSFLTGIISWGEECAMKGKYGIYTKVSRYVNWIKNKTKLT,464,464,300%,0.0243 µM,1.3e+08 M⁻¹ s⁻¹,,
FIXa-K228N/K247N/N249S (protein) chain 1: YNSGKLEEFVQGNLERECMEEKCSFEEAREVFENTERTTEFWKQYVDGDQCESNPCLNGGSCKDDINSYECWCPFGFEGKNCELDVTCNIKNGRCEQFCKNSADNKVVCSCTEGYRLAENQKSCEPAVPFPCGRVSVSQTSKLTR chain 2: VVGGEDAKPGQFPWQVVLNGKVDAFCGGSIVNEKWIVTAAHCVETGVNITVVAGEHNIEETEHTEQNRSVIRIIPHHNYNAAINKYNHDIALLELDEPLVLNSYVTPICIADKEYTNIFLKFGSGYVSGWGRVFHKGRSALVLQYLRVPLVDRATCLRSTKFTIYNNMFCAGFHEGGRDSCQGDSGGPHVTEVEGTSFLTGIISWGEECAMKGKYGIYTKVSRYVNWIKEKTKLT,4.4,4.4,86%,0.0945 µM,3.8e+07 M⁻¹ s⁻¹,,
